Target: T1, OTULIN (OTU deubiquitinase with linear linkage specificity, FAM105B), His-tagged, biotin-labelled (human, UniProt Q96BN8 1-352, biotin (label; sites not stated))
T1 construct: OTULIN (FAM105B), cDNA in pET28a; also called HIS-OTULIN; source: E. coli BL21 (DE3), purified (His-tag Purification Resin), labelled with biotin; not shown: His6, N-terminal, kept
Experiment: peptide or protein array; HuProt human proteome microarray; 5 ug/5 ml biotin-labelled LUBAC or OTULIN in solution, 1 h at room temperature; Cy5-streptavidin, scanned at 635 nm; BSA as negative control; hits: Z-score >= 3 and I_(Mean_Ratio) >= 1.4
Conditions: both partners purified

| binding result | Binder |
| --- | --- |
| binds | TMEM116 (natural protein, human, UniProt Q8NCL8 1-245, looked up, TMEM116; protein on the human proteome microarray; source: spotted on the HuProt human proteome microarray) MKHTQSGQSTSPLVIDYTCRVCQMAFVFSSLIPLLLMTPVFCLGNTSECFQNFSQSHKCILMHSPPSAMAELPPSANTSVCSTLYFYGIAIFLGSFVLSLLTIMVLLIRAQTLYKKFVKSTGFLGSEQWAVIHIVDQRVRFYPVAFFCCWGPAVILMIIKLTKPQDTKLHMALYVLQALTATSQGLLNCGVYGWTQHKFHQLKQEARRDADTQTPLLCSQKRFYSRGLNSLESTLTFPASTSTIF |
| binds | AKR1D1 (natural protein, human, UniProt P51857 1-326, looked up, AKR1D1; protein on the human proteome microarray; source: spotted on the HuProt human proteome microarray) MDLSAASHRIPLSDGNSIPIIGLGTYSEPKSTPKGACATSVKVAIDTGYRHIDGAYIYQNEHEVGEAIREKIAEGKVRREDIFYCGKLWATNHVPEMVRPTLERTLRVLQLDYVDLYIIEVPMAFKPGDEIYPRDENGKWLYHKSNLCATWEAMEACKDAGLVKSLGVSNFNRRQLELILNKPGLKHKPVSNQVECHPYFTQPKLLKFCQQHDIVITAYSPLGTSRNPIWVNVSSPPLLKDALLNSLGKRYNKTAAQIVLRFNIQRGVVVIPKSFNLERIKENFQIFDFSLTEEEMKDIEALNKNVRFVELLMWRDHPEYPFHDEY |
| binds | RBM3 (natural protein, human, UniProt P98179 1-157, looked up, RBM3; protein on the human proteome microarray; source: spotted on the HuProt human proteome microarray) MSSEEGKLFVGGLNFNTDEQALEDHFSSFGPISEVVVVKDRETQRSRGFGFITFTNPEHASVAMRAMNGESLDGRQIRVDHAGKSARGTRGGGFGAHGRGRSYSRGGGDQGYGSGRYYDSRPGGYGYGYGRSRDYNGRNQGGYDRYSGGNYRDNYDN |
| binds | SRXN1 (natural protein, SRXN1; protein on the human proteome microarray; source: spotted on the HuProt human proteome microarray) not shown |
| binds | SPRR4 (natural protein, human, UniProt Q96PI1 1-79, looked up, SPRR4; protein on the human proteome microarray; source: spotted on the HuProt human proteome microarray) MSSQQQQRQQQQCPPQRAQQQQVKQPCQPPPVKCQETCAPKTKDPCAPQVKKQCPPKGTIIPAQQKCPSAQQASKSKQK |
| binds | SDS (natural protein, human, UniProt P20132 1-328, looked up, SDS; protein on the human proteome microarray; source: spotted on the HuProt human proteome microarray) MMSGEPLHVKTPIRDSMALSKMAGTSVYLKMDSAQPSGSFKIRGIGHFCKRWAKQGCAHFVCSSAGNAGMAAAYAARQLGVPATIVVPSTTPALTIERLKNEGATVKVVGELLDEAFELAKALAKNNPGWVYIPPFDDPLIWEGHASIVKELKETLWEKPGAIALSVGGGGLLCGVVQGLQEVGWGDVPVIAMETFGAHSFHAATTAGKLVSLPKITSVAKALGVKTVGAQALKLFQEHPIFSEVISDQEAVAAIEKFVDDEKILVEPACGAALAAVYSHVIQKLQLEGNLRTPLPSLVVIVCGGSNISLAQLRALKEQLGMTNRLPK |
| binds | TTC9C (natural protein, human, UniProt Q8N5M4 1-171, looked up, TTC9C; protein on the human proteome microarray; source: spotted on the HuProt human proteome microarray) MEKRLQEAQLYKEEGNQRYREGKYRDAVSRYHRALLQLRGLDPSLPSPLPNLGPQGPALTPEQENILHTTQTDCYNNLAACLLQMEPVNYERVREYSQKVLERQPDNAKALYRAGVAFFHLQDYDQARHYLLAAVNRQPKDANVRRYLQLTQSELSSYHRKEKQLYLGMFG |
| binds | SRA1 (natural protein, human, UniProt Q9HD15 1-224, looked up, SRA1; protein on the human proteome microarray; source: spotted on the HuProt human proteome microarray) MAELYVKPGNKERGWNDPPQFSYGLQTQAGGPRRSLLTKRVAAPQDGSPRVPASETSPGPPPMGPPPPSSKAPRSPPVGSGPASGVEPTSFPVESEAVMEDVLRPLEQALEDCRGHTRKQVCDDISRRLALLQEQWAGGKLSIPVKKRMALLVQELSSHRWDAADDIHRSLMVDHVTEVSQWMVGVKRLIAEKRSLFSEEAANEEKSAATAEKNHTIPGFQQAS |
| binds | AKR1C3 (natural protein, human, UniProt P42330 1-323, looked up, AKR1C3; protein on the human proteome microarray; source: spotted on the HuProt human proteome microarray) MDSKHQCVKLNDGHFMPVLGFGTYAPPEVPRSKALEVTKLAIEAGFRHIDSAHLYNNEEQVGLAIRSKIADGSVKREDIFYTSKLWSTFHRPELVRPALENSLKKAQLDYVDLYLIHSPMSLKPGEELSPTDENGKVIFDIVDLCTTWEAMEKCKDAGLAKSIGVSNFNRRQLEMILNKPGLKYKPVCNQVECHPYFNRSKLLDFCKSKDIVLVAYSALGSQRDKRWVDPNSPVLLEDPVLCALAKKHKRTPALIALRYQLQRGVVVLAKSYNEQRIRQNVQVFEFQLTAEDMKAIDGLDRNLHYFNSDSFASHPNYPYSDEY |
| binds | TTC9 (natural protein, human, UniProt Q92623 1-222, looked up, TTC9; protein on the human proteome microarray; source: spotted on the HuProt human proteome microarray) MERKGSAAGAKGNPSPPAAGEGQRPPPPLCVPGGGGGAPARGQVGAAAEPAELIRRAHEFKSQGAQCYKDKKFREAIGKYHRALLELKGLLPPPGERERDSRPASPAGALKPGRLSEEQSKTVEAIEIDCYNSLAACLLQAELVNYERVKEYCLKVLKKEGENFKALYRSGVAFYHLGDYDKALYYLKEARTQQPTDTNVIRYIQLTEMKLSRCSQREKEAM |
| binds | RAB5C (natural protein, human, UniProt P51148 1-216, looked up, RAB5C; protein on the human proteome microarray; source: spotted on the HuProt human proteome microarray) MAGRGGAARPNGPAAGNKICQFKLVLLGESAVGKSSLVLRFVKGQFHEYQESTIGAAFLTQTVCLDDTTVKFEIWDTAGQERYHSLAPMYYRGAQAAIVVYDITNTDTFARAKNWVKELQRQASPNIVIALAGNKADLASKRAVEFQEAQAYADDNSLLFMETSAKTAMNVNEIFMAIAKKLPKNEPQNATGAPGRNRGVDLQENNPASRSQCCSN |
| binds | SULT1B1 (natural protein, SULT1B1; protein on the human proteome microarray; source: spotted on the HuProt human proteome microarray) not shown |
| binds | SULT1C2 (natural protein, human, UniProt O00338 1-296, looked up, SULT1C2; protein on the human proteome microarray; source: spotted on the HuProt human proteome microarray) MALTSDLGKQIKLKEVEGTLLQPATVDNWSQIQSFEAKPDDLLICTYPKAGTTWIQEIVDMIEQNGDVEKCQRAIIQHRHPFIEWARPPQPSGVEKAKAMPSPRILKTHLSTQLLPPSFWENNCKFLYVARNAKDCMVSYYHFQRMNHMLPDPGTWEEYFETFINGKVVWGSWFDHVKGWWEMKDRHQILFLFYEDIKRDPKHEIRKVMQFMGKKVDETVLDKIVQETSFEKMKENPMTNRSTVSKSILDQSISSFMRKGTVGDWKNHFTVAQNERFDEIYRRKMEGTSINFCMEL |
| binds | TST (natural protein, human, UniProt Q16762 1-297, looked up, TST; protein on the human proteome microarray; source: spotted on the HuProt human proteome microarray) MVHQVLYRALVSTKWLAESIRTGKLGPGLRVLDASWYSPGTREARKEYLERHVPGASFFDIEECRDTASPYEMMLPSEAGFAEYVGRLGISNHTHVVVYDGEHLGSFYAPRVWWMFRVFGHRTVSVLNGGFRNWLKEGHPVTSEPSRPEPAVFKATLDRSLLKTYEQVLENLESKRFQLVDSRSQGRFLGTEPEPDAVGLDSGHIRGAVNMPFMDFLTEDGFEKGPEELRALFQTKKVDLSQPLIATCRKGVTACHVALAAYLCGKPDVAVYDGSWSEWFRRAPPESRVSQGKSEKA |
| binds | RAB2B (natural protein, human, UniProt Q8WUD1 1-216, looked up, RAB2B; protein on the human proteome microarray; source: spotted on the HuProt human proteome microarray) MTYAYLFKYIIIGDTGVGKSCLLLQFTDKRFQPVHDLTIGVEFGARMVNIDGKQIKLQIWDTAGQESFRSITRSYYRGAAGALLVYDITRRETFNHLTSWLEDARQHSSSNMVIMLIGNKSDLESRRDVKREEGEAFAREHGLIFMETSAKTACNVEEAFINTAKEIYRKIQQGLFDVHNEANGIKIGPQQSISTSVGPSASQRNSRDIGSNSGCC |
| binds | RALY (natural protein, human, UniProt Q9UKM9 1-306, looked up, RALY; protein on the human proteome microarray; source: spotted on the HuProt human proteome microarray) MSLKLQASNVTNKNDPKSINSRVFIGNLNTALVKKSDVETIFSKYGRVAGCSVHKGYAFVQYSNERHARAAVLGENGRVLAGQTLDINMAGEPKPDRPKGLKRAASAIYSGYIFDYDYYRDDFYDRLFDYRGRLSPVPVPRAVPVKRPRVTVPLVRRVKTNVPVKLFARSTAVTTSSAKIKLKSSELQAIKTELTQIKSNIDALLSRLEQIAAEQKANPDGKKKGDGGGAGGGGGGGGSGGGGSGGGGGGGSSRPPAPQENTTSEAGLPQGEARTRDDGDEEGLLTHSEEELEHSQDTDADDGALQ |
| binds | SLC25A16 (natural protein, human, UniProt P16260 1-332, looked up, SLC25A16; protein on the human proteome microarray; source: spotted on the HuProt human proteome microarray) MAAATAAAALAAADPPPAMPQAAGAGGPTTRRDFYWLRSFLAGGIAGCCAKTTVAPLDRVKVLLQAHNHHYKHLGVFSALRAVPQKEGFLGLYKGNGAMMIRIFPYGAIQFMAFEHYKTLITTKLGISGHVHRLMAGSMAGMTAVICTYPLDMVRVRLAFQVKGEHSYTGIIHAFKTIYAKEGGFFGFYRGLMPTILGMAPYAGVSFFTFGTLKSVGLSHAPTLLGRPSSDNPNVLVLKTHVNLLCGGVAGAIAQTISYPFDVTRRRMQLGTVLPEFEKCLTMRDTMKYVYGHHGIRKGLYRGLSLNYIRCIPSQAVAFTTYELMKQFFHLN |
| binds | TAF9B (natural protein, human, UniProt Q9HBM6 1-251, looked up, TAF9B; protein on the human proteome microarray; source: spotted on the HuProt human proteome microarray) MESGKMAPPKNAPRDALVMAQILKDMGITEYEPRVINQMLEFAFRYVTTILDDAKIYSSHAKKPNVDADDVRLAIQCRADQSFTSPPPRDFLLDIARQKNQTPLPLIKPYAGPRLPPDRYCLTAPNYRLKSLIKKGPNQGRLVPRLSVGAVSSKPTTPTIATPQTVSVPNKVATPMSVTSQRFTVQIPPSQSTPVKPVPATTAVQNVLINPSMIGPKNILITTNMVSSQNTANEANPLKRKHEDDDDNDIM |
| binds | RPP25 (natural protein, human, UniProt Q9BUL9 1-199, looked up, RPP25; protein on the human proteome microarray; source: spotted on the HuProt human proteome microarray) MENFRKVRSEEAPAGCGAEGGGPGSGPFADLAPGAVHMRVKEGSKIRNLMAFATASMAQPATRAIVFSGCGRATTKTVTCAEILKRRLAGLHQVTRLRYRSVREVWQSLPPGPTQGQTPGEPAASLSVLKNVPGLAILLSKDALDPRQPGYQPPNPHPGPSSPPAAPASKRSLGEPAAGEGSAKRSQPEPGVADEDQTA |
| binds | RAB5A (natural protein, human, UniProt P20339 1-215, looked up, RAB5A; protein on the human proteome microarray; source: spotted on the HuProt human proteome microarray) MASRGATRPNGPNTGNKICQFKLVLLGESAVGKSSLVLRFVKGQFHEFQESTIGAAFLTQTVCLDDTTVKFEIWDTAGQERYHSLAPMYYRGAQAAIVVYDITNEESFARAKNWVKELQRQASPNIVIALSGNKADLANKRAVDFQEAQSYADDNSLLFMETSAKTSMNVNEIFMAIAKKLPKNEPQNPGANSARGRGVDLTEPTQPTRNQCCSN |
| binds | TK1 (natural protein, human, UniProt P04183 1-234, looked up, TK1; protein on the human proteome microarray; source: spotted on the HuProt human proteome microarray) MSCINLPTVLPGSPSKTRGQIQVILGPMFSGKSTELMRRVRRFQIAQYKCLVIKYAKDTRYSSSFCTHDRNTMEALPACLLRDVAQEALGVAVIGIDEGQFFPDIVEFCEAMANAGKTVIVAALDGTFQRKPFGAILNLVPLAESVVKLTAVCMECFREAAYTKRLGTEKEVEVIGGADKYHSVCRLCYFKKASGQPAGPDNKENCPVPGKPGEAVAARKLFAPQQILQCSPAN |

Reference: paper PMC8274477 (Frontiers in Cell and Developmental Biology, 2021)
